Results taken from publication PMC4571279 (Nature Communications, 2015).
Residue numbers refer to the chain shown, from its start. In names and notes the source's numbering stands.

B1:  (Fab, V domains shown)
VH: QVQLVQSGAEVKKPGSSVKVSCKASGGTFSSYAISWVRQAPGQGLEWMGGIIPILGTASYAQKFQGRVTITADKSTSTAYMELSSLRSEDTAVYYCARVGYCSSTSCNRGAFDIWGQGTMVTVSS
VL: DIQLTQSPSSLSASVGDRVTITCRASQGIRNDLGWYQQKPGKAPKLLIYAASSLQSGVPSRFSGSGSGTDFTLTISSLQPEDFATYYCQQLNSYPLTFGGGTKVEIK
notes: also called m336 F54L
B2:  (Fab, V domains shown)
VH: B1 VH with L55F, K74E
VL: B1 VL
notes: also called m336 K73E

Biological target: T1, recombinant MERS-CoV S1 protein (MERS-CoV, isolate EMC/2012 (strain of …, UniProt K0BRG7))
T1 construct: source: bought: Sino Biological Inc
Assay: ELISA
Settings: both partners purified

Binder | fold reduction (EC50) against wild-type m336 [fold] | fold reduction of binding affinity against m336 [fold]
B1 | ≥ 1000 | 
B2 |  | ≥ 10
